Four substances from patent publication US8796183B2, “Template fixed beta-hairpin loop mimetics and their use in phage display” (Polyphor Ltd., priority 2003, dated 2014) can be followed below.

Positions of bridges follow the written chain, without caps; N, C: chain ends. No end group written: not given here.

This data set is described as follows: Circular dichroism. Conditions: linear precursor of the compound (before disulfide bridge formation), 10^−4 M in water as TFA salt, room temperature (FIG. 7). The data set is classed as physicochemical. The text has this: Circular dichroism measurements are sensitive to the secondary structure of both peptides and proteins and have been extensively used to examine the conformation of both (M. Jourdan, S. R. Griffiths-Jones, M. S. Searle, Eur. J. Biochem. 2000, 267, 3539-3548; J. T. Pelto, L. R. Mc. Lean, Analytical Biochemistry, 2000, 277, 167-176).
Circular Dichroism spectra were obtained on a Jasco J-715 spectropolarimeter, equipped with a spectra manager for windows 95/NT. Version 1.52.01 [Build2]. All measurements were performed at room temperature in quartz cells of 0.1 cm path length in water. Spectra were recorded with a 1 nm bandwidth, five scans were collected to improve the signal-to-noise ratio and the solvent baseline was recorded and subtracted from the spectra of the samples. All CD spectra were smoothed (with the same value), and are reported as molecular ellipticity units (Mol. Ellip.) of peptide residue.
Measurement parameters: Band width: 1.0 nm, response: 1 s, sensitivity: standard, measurement range: 240-190 nm, data pitch: 0.5 nm, scanning speed: 50 nm/min. Concentration of the linear deprotected, purified peptide solutions: 10^−4 M in water as TFA salts. The pH and purity of the linear deprotected, purified peptides as precursors of the following examples were: Example 3: pH 6.38, purity 91%; Example 4: pH 6.77, purity 89%; Example 5: pH 6.01, purity 98%; Example 9: pH 6.00, purity 94%.
On the technique in general: Circular dichroism is widely used to follow secondary structure.

Take “Example 3: Ac-NH-Cys-Thr-Lys-Trp-Phe-Ser-Asn-His-Tyr-Gln-Thr-Cys-H, cysteines linked by a disulfide bridge; reference not having a template (Ac-CTKWFSNHYQTC; disulfide 1-12 (inferred); also: C-terminus written as -H)”: the “CD-spectrum: secondary structure content” value was “mixture of a coil structure and a β-sheet structure”. Take “Example 4: Ac-NH-Glu-Thr-Cys-Thr-Lys-Trp-Phe-Ser-Asn-His-Tyr-Gln-Thr-Cys-Thr-Lys-H, cysteines linked by a disulfide bridge (Ac-ETCTKWFSNHYQTCTK; disulfide 3-14 (inferred); also: C-terminus written as -H)”: the “CD-spectrum: secondary structure content” value was “high content of a β-sheet structure”.

“Example 5: Ac-NH-Cys-Thr-Lys-Trp-Phe-Leu-Ala-His-Tyr-Ala-Thr-Cys-H, cysteines linked by a disulfide bridge; reference not having a template (Ac-CTKWFLAHYATC; disulfide 1-12 (inferred); also: C-terminus written as -H)”: the “CD-spectrum: secondary structure content” value is “high content of coil- and α-helix structure and traces of a β-sheet structure”. With “Example 9: Ac-NH-Glu-Thr-Cys-Thr-Lys-Trp-Phe-Leu-Ala-His-Tyr-Ala-Thr-Cys-Thr-Lys-H, cysteines linked by a disulfide bridge (Ac-ETCTKWFLAHYATCTK; disulfide 3-14 (inferred); also: C-terminus written as -H)”, the “CD-spectrum: secondary structure content” value is “high content of β-sheet structure and a β-turn structure”.
